Results published in patent publication US20230094463A1, “ANTIBODIES THAT DISRUPT THE INTERACTION OF GAL3 AND INSULIN RECEPTOR OR INTEGRINS AND METHODS OF USE THEREOF” (TrueBinding, Inc., priority 2019, published 2023).

Tests used:
[1] = test system: NOD/ShiLtJ mice; settings: 10 mg/kg twice a week
Description: To assess the therapeutic potential of anti-GAL3 antibody in Type I diabetes, a mouse model of diabetes type I was used. Briefly, seven-weeks-old female NOD/ShiLtJ mice (Jackson lab (001976)) and control group animals NOR/LtJ (Jackson Lab (002050)) were housed in standard disposable cages with filter tops at room temperature with a 6:00-18:00 day-night cycle. Mice were allowed to rest for a week before initiating glucose monitoring. The antibody treatment was initiated when glucose levels reach 250-400 (mg/dL) for two consecutive days. To establish glucose levels, the blood samples were collected from tail vein of the experimental animals following housing in clean cages with water and no food for 4-6 hours. The collected samples were analyzed by HemoCue Glucose 201 Analyzer and cuvettes (Mercedes Scientific 110706). […] At the end stage, the plasma samples were collected from symptomatic animals. C-peptide levels were determined by Alpco Mouse C-peptide ELISA kit (Alpco, 80-CPTMS-E01).

[2] = target: T1, human Gal3 (Homo sapiens, UniProt P17931); experiment: Antibody binning assays (competition for binding to Gal3); settings: binning per Examples 3 and 18
T1 construct: His; purchased AcroBio GA3-H5129
T1 sequence (P17931 whole entry): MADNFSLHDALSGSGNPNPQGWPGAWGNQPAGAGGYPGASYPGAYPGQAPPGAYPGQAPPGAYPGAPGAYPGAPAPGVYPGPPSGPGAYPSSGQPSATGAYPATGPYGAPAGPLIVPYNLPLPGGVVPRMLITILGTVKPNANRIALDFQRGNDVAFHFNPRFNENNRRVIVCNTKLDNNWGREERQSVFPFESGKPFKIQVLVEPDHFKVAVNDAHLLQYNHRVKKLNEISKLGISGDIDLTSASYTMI
Experimental: To determine whether Gal3-binding antibodies with Gal3-INSR blocking activity bind to the same or overlapping regions of the Gal3 molecule, antibody binning assays were performed to assess the ability of antibodies to simultaneously bind Gal3. Amine-reactive probes were loaded onto a Gator biosensor (Probe Life, Palo Alto, Calif.), equilibrated in dH20 for 60 seconds, dipped into 100 μl EDC 0.2M/NHS 0.05M activation buffer for 30 seconds, then dipped into a solution of […] human Gal3-His in 10 mM NaOAc buffer, pH 5 until binding was saturated, and quenched in 1 M ethanolamine pH 8.5 for 300 seconds. Following Gal3-His loading, tips were dipped in 20 μg/mL saturating antibody, then successively dipped into 5 μg/mL competing antibody.
The epitope binning assay was done in a sandwich format on the high-throughput SPR-based Carterra LSA unit (CarterraBio, Salt Lake City, Utah). First, the purified antibodies were diluted to 10 μg/ml concentration in 10 mM NaOAc (pH 5.0) and then were covalently coupled via amine group to HC200M chip activated by EDC and S-NHS to immobilize antibodies to different positions of a 384-spot array. One hundred thirty-eight binning cycles were run on the array of immobilized antibodies. In each cycle, first, human Gal3 (AcroBio GA3-H5129) was injected over the entire array to bind to different antibodies (primary antibody), followed by one antibody (secondary antibody) selected among the panel of 150 anti-GAL3 antibodies tested. At the end of each cycle, the array was regenerated by 10 mM Glycine (pH 2.0) to remove bound antigen and secondary antibody from the array. The data analysis was done using the Epitope software by CarterraBio.

[3] = test system: Jurkat T cell adhesion; experiment: Jurkat T cell adhesion assay on Gal-3/antibody coated plates; type: cell-based; settings: recombinant Gal-3 pre-incubated with antibody, 10^5 cells per well
Experimental: To evaluate whether anti-GAL3 antibodies that block GAL3 interaction with integrin negatively influence lymphocyte homing (an important aspect in development of inflammatory diseases), a cell-based assay utilizing lymphocyte Jurkat T cell line was employed. Briefly, recombinant Gal-3 ([…] in PBS) and antibody ([…] in PBS) were incubated for 30 minutes on ice prior to the coating mixture transfer to the 96-well plate and additional overnight incubation. The coating mixture was then removed and the plate was blocked with 0.5% BSA for 45 minutes. Jurkat T cells (10^5 cells per well) were plated in serum free RPMI. Following thirty-minute incubation, the cells were gently washed once with serum free medium and fixed with 4% PFA for 10 minutes. The adhered cells were further stained with SYTOX™ Orange Nucleic Acid staining (ThermoFisher, S11368) and analyzed by Cytation 1 Cell Imaging Multi-Mode Reader (Biotek).

[4] = target: T2, Gal3 peptides (SEQ ID NOs: 3-26) (Homo sapiens, UniProt P17931); experiment: Gal3 peptide library binding ELISA (epitope mapping)
T2 construct: a library of 24 amino acid peptides representing portions of Gal3; purchased LifeTein custom order
Experimental: (§1) To identify the epitopes to which Gal3 antibodies with and without Gal3-INSR blocking activity bound, a library of 24 amino acid peptides representing portions of Gal3, depicted in FIG. 27, was produced and the ability of each peptide to bind Gal3 antibodies was evaluated by ELISA. At least 2 μg/ml of hGal3 peptide in 50 μl of PBS or 0.1 μg/ml of full-length human Gal3 protein (GenScript) and human Galectin-3 protein (Acro Biosystems, GA3-H5129) were diluted in PBS (Corning, 21-030-CM) to concentrations of at least 2 μg/ml or 0.1 μg/ml, respectively, and added to the wells of a 96-well ELISA plate (Thermo Fisher, 44-2404-21). After incubating the plate at 4° C. overnight, the plate was washed three times with PBST (PBS with 0.05% Tween 20 [VWR, 0777]). The plate was then blocked for an hour with 2% BSA (EMD Millipore, 126609) in PBST at room temperature with gentle rocking. Thereafter, the 2% BSA in PBST was discarded and human Galectin-3 hybridoma supernatants or antibodies were diluted in 2% BSA in PBST to concentrations of at least 0.1 μg/ml and added to the wells. The plate was incubated for an hour at room temperature with gentle rocking and then washed three times with PBST. Afterwards, Goat Anti-Mouse IgG-HRP (Jackson ImmunoResearch, 115-036-1461) or Goat Anti-Rat IgG HRP (Abcam, ab205720) diluted in 2% BSA in PBST (1:4000) were added to the wells. The plate was incubated for 30 minutes to 1 hour at room temperature with gentle rocking and then washed three times with PBST. TMB substrate (Thermo Scientific, 34029) was then added to each well. The reaction was stopped with 1M HCl (JT Baker, 5620-02) and read using a plate reader (Molecular Devices) at absorbance of 450 nm.
(§2) Human Gal3 peptides (LifeTein, custom order) and human Gal3 proteins (R&D Systems, 8259-GA; TrueBinding, QCB200349) were diluted in PBS (Corning, 21-030-CM) to concentrations of at least 100 μg/mL (peptides) or 1 μg/mL (proteins), and added to the wells of several 96-well ELISA plates (Thermo Fisher, 44-2404-21). After incubating the plates at 4° C. overnight, the plates were washed three times with PBST (PBS with 0.05% Tween 20 [VWR, 0777]). The plates were then blocked for an hour with 2% BSA (EMD Millipore, 126609) in PBST at room temperature with gentle rocking. Thereafter, the 2% BSA in PBST was discarded and Gal3-binding antibodies (reformatted hIgG4 [S228P]) were diluted in 2% BSA in PBST to concentrations of 5 μg/mL and added to the wells. The plates were incubated for an hour at room temperature with gentle rocking and then washed three times with PBST. Afterwards, Peroxidase AffiniPure F(ab′)2 Fragment Goat Anti-Human IgG (H+L) polyclonal antibody (Jackson ImmunoResearch, 109-036-003), was diluted in 2% BSA in PBST (1:4000) and added to the wells. The plates were incubated for 1 hour at room temperature with gentle rocking and then washed three times with PBST. TMB substrate (Thermo Scientific, 34029) was then added to each well. The reaction was stopped with 1M HCl (JT Baker, 5620-02) and read using a plate reader (Molecular Devices) at absorbance of 450 nm.

[5] = test system: Gal3 peptides (SEQ ID NOs: 3-26); experiment: as above; design: species or system human; settings: Peptide 8 (SEQ ID NO: 10)
Experimental: as §1, §2

B1: mTB001: anti-GAL3 antibody used in mouse models (antibody)
heavy: QIQLVQSGPELKKPGETVKISCKASGYTFTNYGMNWVKQAPGKGLKWMGWINTNTGEPTYVEEFKGRFAFSLETSASTAYLQINNLKNEDTATYFCAPYDNFFAYWGQGTLVTVSAAKTTPPSVYPLAPVCGDTTGSSVTLGCLVKGYFPEPVTLTWNSGSLSSGVHTFPAVLQSDLYTLSSSVTVTSSTWPSQSITCNVAHPASSTKVDKKIEPRGPTIKPCPPCKCPAPNAAGGPSVFIFPPKIKDVLMISLSPIVTCVVVDVSEDDPDVQISWFVNNVEVHTAQTQTHREDYNSTLRVVSALPIQHQDWMSGKEFKCKVNNKDLGAPIERTISKPKGSVRAPQVYVLPPPEEEMTKKQVTLTCMVTDFMPEDIYVEWTNNGKTELNYKNTEPVLDSDGSYFMYSKLRVEKKNWVERNSYSCSVVHEGLHNHHTTKSFSRTPGK
light: DIVITQDELSNPVTSGESVSISCRSSKSLLYKDGKTYLNWFLQRPGQSPQLLIYLMSTHASGVSDRFSGSGSGTDFTLEISRVKAEDVGVYYCQQLVDYPLTFGAGTKLELKRADVAPTVSIFPPSSEQLTSGGASVVCFLNNFYPKDINVKWKIDGSERQNGVLNSWTDQDSKDSTYSMSSTLTLTKDEYERHNSYTCEATHKTSTSPIVKSFNRNEC
levels of blood glucose [1]: stabilizing the levels of blood glucose | survival [1]: prolonged survival | C-peptide levels ([1]; plasma ELISA): restoring C-peptide levels

B2: 23H9.2E4: anti-Gal3 monoclonal antibody (antibody, V domains shown)
VH: QIQLVQSGPELKKPGETVKISCKASGYTFTTYAMSWVKQAPGKGLKWMGWINTYSGVPTYADDLKGRFAFSLETSASTAYLQINNLKNEDTATYFCARGPYAMDYWGQGTSVTVSS
VL: DIQMTQTTSSLSASLGDRVTISCSASQGINNYLNWYQQKPDGTVKLLIYYASSLHSGVPSRFSGSGSGTDYSLTISNLEPEDIATYYCQQYSQVPYTFGSGTKLEIK
epitope bin (competitive binding to Gal3) [2]: bin 3 | inhibition of Jurkat T cell adhesion [3]: did not inhibit | binding to Gal3 Peptide 1 ([4]; Peptide 1 (SEQ ID NO: 3), amino acids 1-20 of Gal3): bind and bound | binding to Gal3 Peptide 6 ([4]; Peptide 6 (SEQ ID NO: 8), amino acids 51-70 of Gal3): bind and bound | binding to Gal3 Peptide 7 ([4]; Peptide 7 (SEQ ID NO: 9), amino acids 61-80 of Gal3): bind and bound | binding to Gal3 Peptide 8 [5]: bind
